Data set [1] addresses TDG G199S G199S (human (rs4135113 variant)) (UniProt Q13569). The experiment in a line: EMSA. As to conditions: tetrahydrofuran abasic analog (X, written N) at position 17 of strand 2, opposite A12 of strand 1; 20 mM HEPES pH 7.3, 1 mM EDTA, 10 mM (NH4)2SO4, 1 mM DTT, 0.2% Tween-20, 30 mM KCl; 2 nM DNA, 30 min at room temperature; 6% native PAGE at 4 C. For orientation: Mobility shift assays separate free from complexed probe on a gel.

For the next data set, the target named is TDG WT (human) (UniProt Q13569). The experiment in a line: EMSA. Particulars: tetrahydrofuran abasic analog (X, written N) at position 17 of strand 2, opposite A12 of strand 1; 20 mM HEPES pH 7.3, 1 mM EDTA, 10 mM (NH4)2SO4, 1 mM DTT, 0.2% Tween-20, 30 mM KCl; 2 nM DNA, 30 min at room temperature; 6% native PAGE at 4 C.
Chain of TDG WT (human) (Q13569 whole entry): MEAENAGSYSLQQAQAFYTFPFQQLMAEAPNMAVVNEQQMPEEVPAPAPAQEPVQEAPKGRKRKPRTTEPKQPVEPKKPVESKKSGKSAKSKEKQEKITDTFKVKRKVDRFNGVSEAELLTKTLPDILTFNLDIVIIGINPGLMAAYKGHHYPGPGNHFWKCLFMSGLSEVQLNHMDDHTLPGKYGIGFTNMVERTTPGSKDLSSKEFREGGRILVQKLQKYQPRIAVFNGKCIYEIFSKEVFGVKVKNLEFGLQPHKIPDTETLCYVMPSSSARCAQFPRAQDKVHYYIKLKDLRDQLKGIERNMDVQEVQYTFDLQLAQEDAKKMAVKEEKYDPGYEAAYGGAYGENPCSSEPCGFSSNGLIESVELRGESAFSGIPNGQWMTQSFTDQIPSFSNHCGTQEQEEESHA

Chain of TDG G199S G199S (human (rs4135113 variant)) (Q13569 whole entry G199S): as the sequence (Q13569 whole entry) above, with G199S counted along it

As a reminder, the Kd is the free concentration of one partner at which half of the binding sites on the other are occupied at equilibrium, for simple one-to-one binding. Low readings indicate a tighter complex, high ones a looser complex. As to “CAGCTCTGTACATGAGCAGTGGTGACAC / GTGTCACCACTGCTCANGTACAGAGCTG [28-mer THF:A]”, the Kd came to 0.035 µM in data set [1] and 0.153 µM with TDG WT (human).

These data come from PMC4222680.
